From US8076094

What was measured:
GST-H3 1-15 T11A = GST-H3 1-15 T11A (UniProt P68431)
[1] = target: histone H3 in nucleosomes purified from HeLa cells (UniProt P68431)
[2] = test system: GST control protein [GST: P08515]
GST-H3 1-44 = GST-H3 1-44 (UniProt P68431)

In the case of “purified recombinant PRK1 (ProQinase GmbH)”, the “phosphorylation in in vitro kinase assay” value (GST-H3 1-15 T11A) was “mutation of threonine 11 to alanine in H3 1-15 (H3 1-15 T11A) abolishes phosphorylation” and the “phosphorylation in in vitro kinase assay, Western blot with α-phosphoH3T11” value [1] was “PRK1 phosphorylates nucleosomes at H3T11”.

For “Myc-PRK1, immunoprecipitated from 293 cell lysates”, the “phosphorylation in in vitro kinase assay (32P, SDS-PAGE, autoradiography)” value [2] was “The GST control protein is not phosphorylated, thus demonstrating specificity” and the “phosphorylation in in vitro kinase assay (32P, SDS-PAGE, autoradiography)” value (GST-H3 1-44) was “GST-H3 1-44 is phosphorylated by PRK1”.
